# Laboratory results published in patent US20260184748A1 (University of Pennsylvania, published 2026).
# Where no end group is shown, it is not given here.
# Columns and labels:
# Test in all cases: cell-based or functional assay
# [1] = target: HRH4 (UniProt Q9H3N8 1-390)
# [2] = target: T1, HTR1A (UniProt P08908 1-422)
# T1 sequence (looked up): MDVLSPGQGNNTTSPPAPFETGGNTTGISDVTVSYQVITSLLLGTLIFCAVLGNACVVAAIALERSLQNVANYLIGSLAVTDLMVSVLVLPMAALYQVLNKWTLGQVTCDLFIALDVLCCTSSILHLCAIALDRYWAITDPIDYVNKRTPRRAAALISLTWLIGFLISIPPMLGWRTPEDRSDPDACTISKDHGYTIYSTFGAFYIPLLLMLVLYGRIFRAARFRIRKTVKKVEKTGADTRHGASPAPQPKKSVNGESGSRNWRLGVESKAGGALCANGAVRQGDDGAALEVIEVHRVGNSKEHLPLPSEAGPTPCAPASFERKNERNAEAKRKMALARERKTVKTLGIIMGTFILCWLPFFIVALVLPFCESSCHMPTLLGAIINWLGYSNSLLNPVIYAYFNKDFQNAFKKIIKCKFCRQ
# [3] = target: MC1R (UniProt Q01726 1-317)
# Sequence of MC1R (Q01726 whole entry): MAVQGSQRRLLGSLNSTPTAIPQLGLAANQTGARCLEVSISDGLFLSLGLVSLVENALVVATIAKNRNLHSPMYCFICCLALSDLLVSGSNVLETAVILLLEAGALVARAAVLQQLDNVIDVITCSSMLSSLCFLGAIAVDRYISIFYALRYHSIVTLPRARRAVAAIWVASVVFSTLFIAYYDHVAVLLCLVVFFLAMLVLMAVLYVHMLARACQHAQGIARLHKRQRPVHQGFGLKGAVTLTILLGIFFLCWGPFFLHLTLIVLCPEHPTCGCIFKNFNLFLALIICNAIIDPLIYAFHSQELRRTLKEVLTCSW
# [4] = target: MRGPRX1 (UniProt Q96LB2 1-322)
# Sequence of MRGPRX1 (Q96LB2 whole entry): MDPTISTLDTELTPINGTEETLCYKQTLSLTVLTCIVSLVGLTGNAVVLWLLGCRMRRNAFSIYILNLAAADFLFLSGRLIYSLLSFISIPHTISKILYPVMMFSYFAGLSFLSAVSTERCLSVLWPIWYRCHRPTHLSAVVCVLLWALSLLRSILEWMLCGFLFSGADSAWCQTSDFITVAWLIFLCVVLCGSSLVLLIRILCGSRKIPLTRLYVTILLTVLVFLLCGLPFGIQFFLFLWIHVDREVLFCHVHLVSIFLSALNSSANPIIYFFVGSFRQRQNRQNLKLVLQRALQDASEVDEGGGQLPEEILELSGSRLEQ
# [5] = target: MTNR1A (UniProt P48039 1-350)
# Sequence of MTNR1A (P48039 whole entry): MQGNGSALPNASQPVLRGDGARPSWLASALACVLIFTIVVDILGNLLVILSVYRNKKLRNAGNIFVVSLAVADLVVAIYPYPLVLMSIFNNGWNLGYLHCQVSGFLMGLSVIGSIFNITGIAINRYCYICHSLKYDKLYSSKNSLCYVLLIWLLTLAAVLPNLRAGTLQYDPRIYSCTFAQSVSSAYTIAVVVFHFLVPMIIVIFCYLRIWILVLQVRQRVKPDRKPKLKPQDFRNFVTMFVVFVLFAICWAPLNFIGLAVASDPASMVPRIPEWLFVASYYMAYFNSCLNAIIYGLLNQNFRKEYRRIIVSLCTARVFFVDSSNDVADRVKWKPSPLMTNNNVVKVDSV
# [6] = target: OPRD1 (UniProt P41143 1-372)
# Sequence of OPRD1 (P41143 whole entry): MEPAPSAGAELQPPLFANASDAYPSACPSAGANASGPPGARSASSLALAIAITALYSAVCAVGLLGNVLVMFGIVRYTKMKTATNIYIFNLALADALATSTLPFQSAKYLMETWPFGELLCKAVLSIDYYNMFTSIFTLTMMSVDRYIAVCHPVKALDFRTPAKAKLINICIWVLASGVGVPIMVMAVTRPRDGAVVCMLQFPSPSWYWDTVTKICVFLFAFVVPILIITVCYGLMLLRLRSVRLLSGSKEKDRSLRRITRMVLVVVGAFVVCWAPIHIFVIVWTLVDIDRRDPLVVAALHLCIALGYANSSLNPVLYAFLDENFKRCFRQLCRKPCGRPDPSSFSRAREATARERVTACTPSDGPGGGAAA
# [7] = target: T2, PTHR1 (UniProt Q03431 27-593)
# T2 sequence (looked up): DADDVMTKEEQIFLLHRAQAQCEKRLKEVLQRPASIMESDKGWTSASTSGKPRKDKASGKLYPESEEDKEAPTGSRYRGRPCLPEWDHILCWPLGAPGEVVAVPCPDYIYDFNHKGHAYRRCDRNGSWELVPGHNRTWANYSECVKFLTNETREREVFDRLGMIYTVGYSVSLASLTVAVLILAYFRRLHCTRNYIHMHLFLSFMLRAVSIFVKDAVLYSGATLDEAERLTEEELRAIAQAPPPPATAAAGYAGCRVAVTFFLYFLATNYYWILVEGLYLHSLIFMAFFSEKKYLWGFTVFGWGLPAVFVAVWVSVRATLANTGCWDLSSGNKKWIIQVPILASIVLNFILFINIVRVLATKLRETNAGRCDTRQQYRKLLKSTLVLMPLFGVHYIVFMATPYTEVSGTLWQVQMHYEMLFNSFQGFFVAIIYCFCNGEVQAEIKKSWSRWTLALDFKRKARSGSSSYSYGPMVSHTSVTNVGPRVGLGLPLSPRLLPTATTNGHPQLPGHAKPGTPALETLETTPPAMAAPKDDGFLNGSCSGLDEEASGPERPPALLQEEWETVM
# [8] = target: T3, relaxin-3 receptor (RXFP3) (UniProt Q9NSD7 1-469)
# T3 sequence (looked up): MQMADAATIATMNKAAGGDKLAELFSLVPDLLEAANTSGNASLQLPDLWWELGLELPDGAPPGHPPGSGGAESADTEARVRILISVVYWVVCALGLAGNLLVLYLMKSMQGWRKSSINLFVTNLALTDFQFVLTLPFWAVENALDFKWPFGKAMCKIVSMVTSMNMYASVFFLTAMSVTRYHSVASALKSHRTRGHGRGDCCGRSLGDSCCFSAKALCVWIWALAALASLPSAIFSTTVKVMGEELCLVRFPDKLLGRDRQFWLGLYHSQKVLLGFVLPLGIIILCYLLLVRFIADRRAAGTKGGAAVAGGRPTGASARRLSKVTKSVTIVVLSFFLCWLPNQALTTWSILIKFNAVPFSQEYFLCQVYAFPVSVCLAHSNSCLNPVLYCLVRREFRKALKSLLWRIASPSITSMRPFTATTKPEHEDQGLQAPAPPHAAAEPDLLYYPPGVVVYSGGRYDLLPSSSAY
# [9] = target: T4, BDKRB1 (UniProt P46663 1-353)
# T4 sequence (looked up): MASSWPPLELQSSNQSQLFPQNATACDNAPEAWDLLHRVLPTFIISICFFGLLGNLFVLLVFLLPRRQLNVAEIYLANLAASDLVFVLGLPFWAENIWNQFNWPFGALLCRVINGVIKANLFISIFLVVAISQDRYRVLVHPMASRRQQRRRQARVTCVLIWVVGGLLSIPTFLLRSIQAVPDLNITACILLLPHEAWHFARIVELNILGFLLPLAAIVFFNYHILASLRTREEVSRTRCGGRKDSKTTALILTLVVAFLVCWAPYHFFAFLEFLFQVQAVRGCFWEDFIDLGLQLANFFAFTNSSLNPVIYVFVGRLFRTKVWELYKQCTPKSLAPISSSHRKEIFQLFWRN
# [10] = target: CHRM3 (UniProt P20309 1-590)
# Sequence of CHRM3 (P20309 whole entry): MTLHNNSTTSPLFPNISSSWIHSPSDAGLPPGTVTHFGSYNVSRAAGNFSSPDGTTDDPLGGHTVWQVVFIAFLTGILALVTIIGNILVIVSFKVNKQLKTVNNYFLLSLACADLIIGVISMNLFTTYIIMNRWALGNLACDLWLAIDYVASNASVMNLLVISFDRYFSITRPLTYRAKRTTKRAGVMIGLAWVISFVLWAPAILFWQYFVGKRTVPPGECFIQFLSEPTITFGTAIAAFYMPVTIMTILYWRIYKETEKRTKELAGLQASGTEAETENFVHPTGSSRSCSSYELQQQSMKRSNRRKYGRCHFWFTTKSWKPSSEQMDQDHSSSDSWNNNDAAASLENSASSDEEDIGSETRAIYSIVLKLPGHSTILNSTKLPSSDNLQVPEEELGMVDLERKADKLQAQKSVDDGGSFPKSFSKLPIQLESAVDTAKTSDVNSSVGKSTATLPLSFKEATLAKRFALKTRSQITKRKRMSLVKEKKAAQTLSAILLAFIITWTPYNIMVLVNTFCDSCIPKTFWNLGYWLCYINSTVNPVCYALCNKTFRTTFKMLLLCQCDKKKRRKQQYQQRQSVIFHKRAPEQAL
# [11] = target: T5, CX3CR1 (UniProt P49238 1-355)
# T5 sequence (looked up): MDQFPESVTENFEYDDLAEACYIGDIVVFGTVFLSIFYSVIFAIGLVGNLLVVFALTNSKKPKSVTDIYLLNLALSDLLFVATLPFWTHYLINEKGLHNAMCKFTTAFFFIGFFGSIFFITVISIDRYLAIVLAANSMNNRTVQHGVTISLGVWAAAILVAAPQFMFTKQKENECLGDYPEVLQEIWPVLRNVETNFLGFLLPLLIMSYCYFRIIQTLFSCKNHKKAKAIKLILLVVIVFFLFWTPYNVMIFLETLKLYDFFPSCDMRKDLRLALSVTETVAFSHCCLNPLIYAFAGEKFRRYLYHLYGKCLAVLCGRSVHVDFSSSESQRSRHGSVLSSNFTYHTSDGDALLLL
# [12] = target: CXCR4 (UniProt P61073 1-352)
# Sequence of CXCR4 (P61073 whole entry): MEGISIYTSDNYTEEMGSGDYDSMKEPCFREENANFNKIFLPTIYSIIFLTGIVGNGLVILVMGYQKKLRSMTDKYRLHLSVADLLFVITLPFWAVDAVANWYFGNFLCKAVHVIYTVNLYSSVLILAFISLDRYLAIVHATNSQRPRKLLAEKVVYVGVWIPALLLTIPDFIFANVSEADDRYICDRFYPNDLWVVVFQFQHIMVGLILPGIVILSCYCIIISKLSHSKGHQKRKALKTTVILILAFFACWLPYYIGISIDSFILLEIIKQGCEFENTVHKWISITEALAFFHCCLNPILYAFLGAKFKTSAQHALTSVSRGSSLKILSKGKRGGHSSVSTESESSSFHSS
# [13] = target: GPR109A (UniProt Q8TDS4 1-363)
# Sequence of GPR109A (Q8TDS4 whole entry): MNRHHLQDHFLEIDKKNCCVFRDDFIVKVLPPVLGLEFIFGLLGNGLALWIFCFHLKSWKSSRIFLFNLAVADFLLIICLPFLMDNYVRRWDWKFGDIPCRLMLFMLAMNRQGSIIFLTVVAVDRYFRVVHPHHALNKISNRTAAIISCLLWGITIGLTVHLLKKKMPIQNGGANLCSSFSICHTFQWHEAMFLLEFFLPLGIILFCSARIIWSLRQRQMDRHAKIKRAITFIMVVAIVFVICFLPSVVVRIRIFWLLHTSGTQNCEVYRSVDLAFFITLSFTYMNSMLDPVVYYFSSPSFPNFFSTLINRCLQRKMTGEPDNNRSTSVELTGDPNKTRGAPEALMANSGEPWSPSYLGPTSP
# Sequence of HRH4 (Q9H3N8 whole entry): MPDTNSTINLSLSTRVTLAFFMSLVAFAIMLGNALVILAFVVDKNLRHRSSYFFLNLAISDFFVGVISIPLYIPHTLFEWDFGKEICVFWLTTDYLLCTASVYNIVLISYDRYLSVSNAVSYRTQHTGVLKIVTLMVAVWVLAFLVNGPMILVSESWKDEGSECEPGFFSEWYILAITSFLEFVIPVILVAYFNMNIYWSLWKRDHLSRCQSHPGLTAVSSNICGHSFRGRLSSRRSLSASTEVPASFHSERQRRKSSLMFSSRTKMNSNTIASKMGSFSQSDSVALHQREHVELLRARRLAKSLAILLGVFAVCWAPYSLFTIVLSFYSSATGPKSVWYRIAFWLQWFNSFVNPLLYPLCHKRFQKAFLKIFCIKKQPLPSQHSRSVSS
binder,measurement,setting,value
"QATVGDVNTDRPGLLDLK (also: synthesised on Rink amide resin, C-terminal amide not given here outright) [octadecaneuropeptide (ODN)]","% Activity, arrestin, antagonist mode, 2.5 uM",[1],5.2%
same,"% Activity, arrestin, antagonist mode, 2.5 uM",[2],-6.2%
same,"% Activity, arrestin, antagonist mode, 2.5 uM",[3],0.4%
same,"% Activity, arrestin, antagonist mode, 2.5 uM",[4],3.8%
same,"% Activity, arrestin, antagonist mode, 2.5 uM",[5],2.2%
same,"% Activity, arrestin, antagonist mode, 2.5 uM",[6],10%
same,"% Activity, arrestin, antagonist mode, 2.5 uM",[7],-5.7%
same,"% Activity, arrestin, antagonist mode, 2.5 uM",[8],31.4%
same,"% Activity, arrestin, antagonist mode, 2.5 uM",[9],-5.7%
same,"% Activity, arrestin, antagonist mode, 2.5 uM",[10],12.6%
same,"% Activity, arrestin, antagonist mode, 2.5 uM",[11],-0.8%
same,"% Activity, arrestin, antagonist mode, 2.5 uM",[12],-28.5%
same,"% Activity, arrestin, antagonist mode, 2.5 uM",[13],-16%
